Results: patent publication US20160074469A1

Target: human MC1r (melanocortin receptor type 1) (human) (UniProt Q01726)
Assay: cell-based or functional assay

Sequence of UniProt Q01726 (Q01726 whole entry): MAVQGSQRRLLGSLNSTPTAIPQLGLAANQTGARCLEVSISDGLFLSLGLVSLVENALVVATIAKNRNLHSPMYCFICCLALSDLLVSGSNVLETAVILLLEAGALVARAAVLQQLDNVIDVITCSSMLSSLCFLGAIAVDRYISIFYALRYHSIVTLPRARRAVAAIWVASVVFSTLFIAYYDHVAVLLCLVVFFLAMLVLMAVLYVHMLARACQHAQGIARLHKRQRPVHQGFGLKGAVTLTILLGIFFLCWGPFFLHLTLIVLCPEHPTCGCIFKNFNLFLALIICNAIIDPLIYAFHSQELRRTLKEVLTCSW

EC50, cAMP production: 2.12 nM
Emax (max efficacy expressed as percent of αMSH), cAMP production: 72 % of αMSH
B1: Ac(Lys)6-αMSH (Ac(Lys)6-Ser-Tyr-Ser-Met-Glu-His-Phe-Arg-Trp-Gly-Lys-Pro-Val-NH2) (peptide)
peptide: Ac-KKKKKKSYSMEHFRWGKPV-NH2
